Results from patent US20030148956A1 (PROCTER AND GAMBLE, published 2003).
Ends that are not written are not given here.

How the values were obtained:
[1] = target: T1, CRF2R; assay: cell-based or functional assay
T1 sequence (Q13324 whole entry, species assumed, looked up): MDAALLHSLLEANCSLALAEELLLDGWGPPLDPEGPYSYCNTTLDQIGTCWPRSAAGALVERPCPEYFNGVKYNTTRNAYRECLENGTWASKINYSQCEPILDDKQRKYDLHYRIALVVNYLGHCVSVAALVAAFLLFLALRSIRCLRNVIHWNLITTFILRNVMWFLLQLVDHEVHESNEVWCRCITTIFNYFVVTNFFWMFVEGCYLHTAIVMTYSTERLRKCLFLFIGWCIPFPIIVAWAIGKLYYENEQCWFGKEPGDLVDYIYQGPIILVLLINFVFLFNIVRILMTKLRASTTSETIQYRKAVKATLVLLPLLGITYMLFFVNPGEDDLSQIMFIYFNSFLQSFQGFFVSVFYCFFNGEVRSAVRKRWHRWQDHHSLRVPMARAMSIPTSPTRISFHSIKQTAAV

[2] = target: CRF1R; assay: cell-based or functional assay

Binder: SQEPPISLDLTIGLLREVLEMTKADQLAQQAHSNRKLLDIA-NH2 [SEQ ID NO 86]
- CRF2R EC50 [1]: 100 nM
- CRF2R Emax [1]: 8.1%
- CRF1R EC50 [2]: 100 nM
- CRF1R Emax [2]: 4.6%

Binder: SQEPPISLDLPLYLLREVLEMTKADQLAQQAHSNRKLLDIA-NH2 [SEQ ID NO 101]
- CRF2R EC50 [1]: 100 nM
- CRF2R Emax [1]: 6.95%
- CRF1R EC50 [2]: 100 nM
- CRF1R Emax [2]: 7.35%

Binder: SQEPPISLDLPIQLLREVLEMTKADQLAQQAHSNRKLLDIA-NH2 [SEQ ID NO 100]
- CRF2R EC50 [1]: 100 nM
- CRF2R Emax [1]: 9.85%
- CRF1R EC50 [2]: 100 nM
- CRF1R Emax [2]: 6.25%

Binder: SQEIVLSLDVPIGLLREVLEMTKADQLAQQAHSNRKLLDIA-NH2 [SEQ ID NO 7]
- CRF2R EC50 [1]: 100 nM
- CRF2R Emax [1]: 19%
- CRF1R EC50 [2]: 100 nM
- CRF1R Emax [2]: 4%

Binder: SQEPPISLDLPTHLLREVLEMTKADQLAQQAHSNRKLLDIA-NH2 [SEQ ID NO 99]
- CRF2R EC50 [1]: 100 nM
- CRF2R Emax [1]: 4.35%
- CRF1R EC50 [2]: 100 nM
- CRF1R Emax [2]: 4.35%

Binder: SQEPPISLDLTFGLLREVLEMTKADQLAQQAHSNRKLLDIA-NH2 [SEQ ID NO 88]
- CRF2R EC50 [1]: 100 nM
- CRF2R Emax [1]: 12.6%
- CRF1R EC50 [2]: 100 nM
- CRF1R Emax [2]: 11.2%

Binder: SQEPPISLDLPTELLREVLEMTKADQLAQQAHSNRKIIDIA-NH2 [SEQ ID NO 92]
- CRF2R EC50 [1]: 100 nM
- CRF2R Emax [1]: 15.8%
- CRF1R EC50 [2]: 100 nM
- CRF1R Emax [2]: 4.6%

Binder: IVLSLDVPIGLLQILLEQTKADAAREQATTNARILARV-NH2 [SEQ ID NO 108]
- CRF2R EC50 [1]: 79 nM
- CRF2R Emax [1]: 97%
- CRF1R EC50 [2]: > 100 nM
- CRF1R Emax [2]: 3%

Binder: SQEPPISLDLPLQLLREVLEMTKADQLAQQAHSNRKLLDIA-NH2 [SEQ ID NO 95]
- CRF2R EC50 [1]: 100 nM
- CRF2R Emax [1]: 8.25%
- CRF1R EC50 [2]: 100 nM
- CRF1R Emax [2]: 5.55%

Binder: ZGPPISIDLPTHLLRKMIEIEKQEKEKQQAANNRLLLDTI (C-terminal amide) [SEQ ID NO 74]
- CRF2R EC50 [1]: 55 nM
- CRF2R Emax [1]: 100%
- CRF1R EC50 [2]: > 100 nM
- CRF1R Emax [2]: 7%

Binder: ZGPPISIDLPIYLLRKMIEIEKQEKEKQQAANNRLLLDTI (C-terminal amide) [SEQ ID NO 79]
- CRF2R EC50 [1]: 22.3 nM
- CRF2R Emax [1]: 100%
- CRF1R EC50 [2]: > 100 nM
- CRF1R Emax [2]: 8%

Binder: ZGPPISIDLPIELLRKMIEIEKQEKEKQQAANNRLLLDTI (C-terminal amide) [SEQ ID NO 76]
- CRF2R EC50 [1]: 91.5 nM
- CRF2R Emax [1]: 76%
- CRF1R EC50 [2]: > 100 nM
- CRF1R Emax [2]: 7%

Binder: ZGPPISIDLPLHLLRKMIEIEKQEKEKQQAANNRLLLDTI (C-terminal amide) [SEQ ID NO 83]
- CRF2R EC50 [1]: 1.91 nM
- CRF2R Emax [1]: 81%
- CRF1R EC50 [2]: 52.2 nM
- CRF1R Emax [2]: 96%

Binder: ZGPPISIDLPLELLRKMIEIEKQEKEKQQAANNRLLLDTI (C-terminal amide) [SEQ ID NO 82]
- CRF2R EC50 [1]: 10.9 nM
- CRF2R Emax [1]: 90%
- CRF1R EC50 [2]: 96.2 nM
- CRF1R Emax [2]: 85%

Binder: ZGPPISIDLPIQLLRKMIEIEKQEKEKQQAANNRLLLDTI (C-terminal amide) [SEQ ID NO 78]
- CRF2R EC50 [1]: 24.6 nM
- CRF2R Emax [1]: 78%
- CRF1R EC50 [2]: > 100 nM
- CRF1R Emax [2]: 6%

Binder: ZGPPISIDLPFQLLRKMIEIEKQEKEKQQAANNRLLLDTI (C-terminal amide) [SEQ ID NO 84]
- CRF2R EC50 [1]: 1.77 nM
- CRF2R Emax [1]: 100%
- CRF1R EC50 [2]: 82.2 nM
- CRF1R Emax [2]: 99%

Binder: ZGPPISIDLPLQLLRKMIEIEKQEKEKQQAANNRLLLDTI (C-terminal amide) [SEQ ID NO 80]
- CRF2R EC50 [1]: 6.53 nM
- CRF2R Emax [1]: 88%
- CRF1R EC50 [2]: > 100 nM
- CRF1R Emax [2]: 55%

Binder: ZGPPISIDLPFYLLRKMIEIEKQEKEKQQAANNRLLLDTI (C-terminal amide) [SEQ ID NO 85]
- CRF2R EC50 [1]: 2.34 nM
- CRF2R Emax [1]: 100%
- CRF1R EC50 [2]: 11 nM
- CRF1R Emax [2]: 84%

Binder: ZGPPISIDLPIHLLRKMIEIEKQEKEKQQAANNRLLLDTI (C-terminal amide) [SEQ ID NO 77]
- CRF2R EC50 [1]: 43.4 nM
- CRF2R Emax [1]: 100%
- CRF1R EC50 [2]: > 100 nM
- CRF1R Emax [2]: 5%

Binder: ZGPPISIDLPIGLLRKMIEIEKQEKEKQQAANNRLLLDTI (C-terminal amide) [SEQ ID NO 75]
- CRF2R EC50 [1]: > 100 nM
- CRF2R Emax [1]: 52%
- CRF1R EC50 [2]: > 100 nM
- CRF1R Emax [2]: 5%

Binder: IVLSLDVPIGLLQILLEQARARAAREQATTQARILARV-NH2 [SEQ ID NO 9]
- CRF2R EC50 [1]: 100 nM
- CRF2R Emax [1]: 34%
- CRF1R EC50 [2]: 100 nM
- CRF1R Emax [2]: 10%

Binder: ZGPPISIDLPLYLLRKMIEIEKQEKEKQQAANNRLLLDT (C-terminal amide) [SEQ ID NO 81]
- CRF2R EC50 [1]: 4.3 nM
- CRF2R Emax [1]: 73%
- CRF1R EC50 [2]: 60.9 nM
- CRF1R Emax [2]: 81%

Binder: SQEPPISLDLPFYLLREVLEMTKADQLAQQAHSNRKLLDIA-NH2 [SEQ ID NO 96]
- CRF2R EC50 [1]: 100 nM
- CRF2R Emax [1]: 12.5%
- CRF1R EC50 [2]: 100 nM
- CRF1R Emax [2]: 16.3%

Binder: SQEPPISLDLTIHLLREVLEMTKADQLAQQAHSNRKLLDIA-NH2 [SEQ ID NO 87]
- CRF2R EC50 [1]: 100 nM
- CRF2R Emax [1]: 14.7%
- CRF1R EC50 [2]: 100 nM
- CRF1R Emax [2]: 5.3%

Binder: SQEPPISLDLPIHLLREVLEMTKADQLAQQAHSNRKLLDIA-NH2 [SEQ ID NO 94]
- CRF2R EC50 [1]: 100 nM
- CRF2R Emax [1]: 6.15%
- CRF1R EC50 [2]: 100 nM
- CRF1R Emax [2]: 7.3%

Binder: SQEPPISLDLPTYLLREVLEMTKADQLAQQAHSNRKLLDIA-NH2 [SEQ ID NO 106]
- CRF2R EC50 [1]: 100 nM
- CRF2R Emax [1]: 6.1%
- CRF1R EC50 [2]: 100 nM
- CRF1R Emax [2]: 4.8%

Binder: SQEPPISLDLPLGLLREVLEMTKADQLAQQAHSNRKLLDIA-NH2 [SEQ ID NO 90]
- CRF2R EC50 [1]: 100 nM
- CRF2R Emax [1]: 12.2%
- CRF1R EC50 [2]: 100 nM
- CRF1R Emax [2]: 4%

Binder: SQEPPISLDLPFELLREVLEMTKADQLAQQAHSNRKLLDIA-NH2 [SEQ ID NO 97]
- CRF2R EC50 [1]: 100 nM
- CRF2R Emax [1]: 7.6%
- CRF1R EC50 [2]: 100 nM
- CRF1R Emax [2]: 4.25%

Binder: SQEPPISLDLPFGLLREVLEMTKADQLAQQAHSNRKLLDIA-NH2 [SEQ ID NO 103]
- CRF2R EC50 [1]: 100 nM
- CRF2R Emax [1]: 4.85%
- CRF1R EC50 [2]: 100 nM
- CRF1R Emax [2]: 5.75%

Binder: SQEPPISLDLPLHLLREVLEMTKADQLAQQAHSNRKLLDIA-NH2 [SEQ ID NO 102]
- CRF2R EC50 [1]: 100 nM
- CRF2R Emax [1]: 13.5%
- CRF1R EC50 [2]: 100 nM
- CRF1R Emax [2]: 7.8%

Binder: SQEPPISLDLPFQLLREVLEMTKADQLAQQAHSNRKLLDIA-NH2 [SEQ ID NO 91]
- CRF2R EC50 [1]: 100 nM
- CRF2R Emax [1]: 7.1%
- CRF1R EC50 [2]: 100 nM
- CRF1R Emax [2]: 4%

Binder: IVLSLDVPGPLLQILLEQTKQEAAREQATTNARILARV-NH2 [SEQ ID NO 5]
- CRF2R EC50 [1]: 100 nM
- CRF2R Emax [1]: 12%
- CRF1R EC50 [2]: 100 nM
- CRF1R Emax [2]: 9%

Binder: SQEPPISLDLPIGLLREVLEMTKADQLAQQAHSNRKLLDIA-NH2 [SEQ ID NO 93]
- CRF2R EC50 [1]: 100 nM
- CRF2R Emax [1]: 6.4%
- CRF1R EC50 [2]: 100 nM
- CRF1R Emax [2]: 5%

Binder: SQEPPISLDLPTQLLREVLEMTKADQLAQQAHSNRKLLDIA-NH2 [SEQ ID NO 105]
- CRF2R EC50 [1]: 100 nM
- CRF2R Emax [1]: 9.15%
- CRF1R EC50 [2]: 100 nM
- CRF1R Emax [2]: 5.2%

Binder: SQEPPISLDLPTGLLREVLEMTKADQLAQQAHSNRKLLDIA-NH2 [SEQ ID NO 98]
- CRF2R EC50 [1]: 100 nM
- CRF2R Emax [1]: 5.5%
- CRF1R EC50 [2]: 100 nM
- CRF1R Emax [2]: 4%

Binder: SQEPPISLDLPFHLLREVLEMTKADQLAQQAHSNRKLLDIA-NH2 [SEQ ID NO 104]
- CRF2R EC50 [1]: 100 nM
- CRF2R Emax [1]: 4.5%
- CRF1R EC50 [2]: 100 nM
- CRF1R Emax [2]: 11.1%
